Assay: Quenching of peptide tryptophan fluorescence by ferric ions (stoichiometry, apparent Kd)
Type: binding
Settings: 10 mM sodium acetate pH 4.0, 100 mM NaCl, 0.005% Tween 20; mean ± S.E.; read-out: Kd (μM), apparent dissociation constant for ferric ions
Procedure: The tryptophan fluorescence of peptide solutions was measured in 3 mL quartz cuvettes thermostated at […], with a Spex Fluorolog-2 spectrofluorimeter (Spex Industries, Edison, N.J.), with the excitation and emission wavelengths set at 290 and 345 nm, respectively. The quenching of tryptophan fluorescence induced by the binding of metal ions was used to calculate the fraction of binding sites occupied, fa: fa=(yf−y)/(yf−yb) where y is the fluorescence signal at a given concentration of metal ions and yb and yf are the signals when the binding sites are fully occupied and unoccupied, respectively (Winzor et al, 1995). […]
The tryptophan fluorescence of progastrin6-80, glycine-extended gastrin17 and related peptides was measured in the presence of increasing concentrations of ferric ions in 10 mM sodium acetate, pH 4.0, 100 mM NaCl, 0.005% Tween 20. […]
The tryptophan fluorescence of amidated gastrin17 and related peptides was measured in the presence of increasing concentrations of ferric ions at pH 4.0 (8). […]

Kd: 2.15 ± 0.14 µM
B1: Progastrin: recombinant human progastrin6-80 (protein, listed as Homo sapiens)
chain: SQQPDAPLGTGANRDLELPWLEQQGPASHHRRQLGPQGPPHLVADPSKKQGPWLEEEEEAYGWMDFGRRSAEDEN
